Reference: patent publication US5770691A, “Discriminatory substrates for MMP hydrolysis” (Regents of the University of Minnesota, priority 1995, dated 1998)

B1: MMP-1 (Homo sapiens) (protein)
chain: FVLTEGNPRWEQTHLTYRIENYTPDLPRADVDHAIEKAFQLWSNVTPLTFTKVSEGQADIMISFVRGDHRDNSPFDGPGGNLAHAFQPGPGIGGDAHFDEDERWTNNFREYNLHRVAAHELGHSLGLSHSTDIGALMYPSYTFSGDVQLAQDDIDGIQAIYGRSQNPVQPIGPQTPKACDSKLTFDAITTIRGEVMFFKDRFYMRTNPFYPEVELNFISVFWPQLPNGLEAAYEFADRDEVRFFKGNKYWAVQGQNVLHGYPKDIYSSFGFPRTVKHIDAALSEENTGKTYFFVANKYWRYDEYKRSMDPGYPKMIAHDFPGIGHKVDAVFMKDGFFYFFHGTRQYKFDPKTKRILTLQKANSWFNCRKN
notes: made in house; host or cells: native secreted protein purified from culture medium of human rheumatoid synovial cells
B2: MMP-2 (Homo sapiens) (protein)
chain: YNFFPRKPKWDKNQITYRIIGYTPDLDPETVDDAFARAFQVWSDVTPLRFSRIHDGEADIMINFGRWEHGDGYPFDGKDGLLAHAFAPGTGVGGDSHFDDDELWTLGEGQVVRVKYGNADGEYCKFPFLFNGKEYNSCTDTGRSDGFLWCSTTYNFEKDGKYGFCPHEALFTMGGNAEGQPCKFPFRFQGTSYDSCTTEGRTDGYRWCGTTEDYDRDKKYGFCPETAMSTVGGNSEGAPCVFPFTFLGNKYESCTSAGRSDGKMWCATTANYDDDRKWGFCPDQGYSLFLVAAHEFGHAMGLEHSQDPGALMAPIYTYTKNFRLSQDDIKGIQELYGASPDIDLGTGPTPTLGPVTPEICKQDIVFDGIAQIRGEIFFFKDRFIWRTVTPRDKPMGPLLVATFWPELPEKIDAVYEAPQEEKAVFFAGNEYWIYSASTLERGYPKPLTSLGLPPDVQRVDAAFNWSKNKKTYIFAGDKFWRYNEVKKKMDPGFPKLIADAWNAIPDNLDAVVDLQGGGHSYFFKGAYYLKLENQSLKSVKFGSIKSDWLGC
notes: as for B1

Tests used:
Assay type in all cases: biochemical, human
[1] = substrate: CCC[C@H](NC(=O)[C@H](C)NC(=O)[C@H](Cc1ccc(O)cc1)NC(=O)[C@@H]1CCCN1C(=O)[C@H](CCCCN)NC(=O)[C@@H]1CCCN1C(=O)[C@H](CCCNC(=N)N)NC(=O)Cc1cc(=O)oc2cc(OC)ccc12)C(=O)N[C@@H](Cc1c[nH]c2ccccc12)C(=O)N[C@@H](CCSC)C(=O)N[C@@H](CCCCNc1ccc([N+](=O)[O-])cc1[N+](=O)[O-])C(N)=O; assay: Fluorometric hydrolysis of synthetic Mca/Lys(Dnp) substrates by MMP-1; conditions: other: MMP-1, 37° C., pH 7.5
Source text: (§1) All MMPs were purified in zymogen form. ProMMP-1 (Suzuki et al., Biochem., 29, 10261 (1990)), proMMP-2 (Okada et al., Eur. J. Biochem., 194, 721 (1990)), and proMMP-3 (Ito et al., Arch. Biochem. Biophys., 267, 211 (1988)) were purified from the culture medium of human rheumatoid synovial cells stimulated with rabbit macrophage-conditioned medium. ProMMP-9 was purified from the culture medium of HT-1080 cells as described in Morodomi et al., Biochem. J., 285, 603 (1992). ProMMP-2 and proMMP-9 were activated by reacting with 1 mM 4-aminophenylmercuric acetate at 37° C. for 45 minutes and 32 hours, respectively. ProMMP-1 was activated by reacting with 1 mM 4-aminophenylmercuric acetate and an equimolar amount of MMP-3 at 37° C. for 6 hours. After activation, MMP-3 was completely removed from MMP-1 by affinity chromatography using an anti-MMP-3 IgG Affi-Gel 10 column. The resin, Affi-Gel 10 (Biorad, Emoryville, Calif.), was coupled to anti-MMP-3 IgG (Okada et al., Annals of Rheumat. Dis., 48, 645 (1989)) per the manufacturer's protocol. Pro-MMP-3 was activated by reacting with 5 μg/mL chymotrypsin at 37° C. for 2 hours. Chymotrypsin was inactivated with 2 mM diisopropylfluorophosphate. The amounts of active MMP-1, MMP-2, and MMP-3 were determined by titration with tissue inhibitor of metalloproteinase-1(TIMP1) over a concentration range of 0.1-3 μg/mL, while the amount of active MMP-9 was determined by titration with TIMP-2 (0.1-3 μg/mL). TIMP-1 was isolated from the medium of HT-1080 cells as described in Morodomi et al., Biochem J., 285, 603 (1992).
(§2) Substrates were prepared as 10 mM stock solutions in dimethylsulfoxide (DMSO). Fluorescent assays were performed at λex =325 nm and λem =393 nm, which should encounter no interference from Trp residues, using a Hitachi fluorescence spectrophotometer F-3010. Initial total hydrolysis assays were run at a substrate concentration of […] to avoid filtering effects. The change in fluorescence at this concentration was 110 based on total hydrolysis of 1 μM substrate. A typical assay was carried out by incubating 100 μL of various concentrations of a substrate with 10 μL of an enzyme solution (2-20 nM) in 50 mM Tris-HCl, pH 7.5, 0.15M NaCl, 10 mM CaCl2, 0.05% Brij 35, 0.02% NaN3. The reaction was stopped by addition of 900 μl of 3% (v/v) glacial acetic acid. MMP-3 activity at pH 6.0 was measured in 50 mM sodium acetate buffer, pH 6.0, instead of Tris-HCl buffer. The amount of substrate hydrolysis was calculated based on the fluorescence values of the Mca-Arg-Pro-Lys-Pro-Gln standard solution after substraction of the reaction blank value (stopping solution added before the enzyme). Individual kinetic parameters (kcat and KM) were determined over a substrate concentration range of 2.5-75 μM and calculated by double reciprocal plots.

[2] = substrate: COc1ccc2c(CC(=O)N3CCC[C@H]3C(=O)N[C@@H](CCCCN)C(=O)N3CCC[C@H]3C(=O)N[C@@H](CCC(N)=O)C(=O)N[C@@H](CCC(N)=O)C(=O)N[C@@H](Cc3ccccc3)C(=O)N[C@@H](Cc3ccccc3)C(=O)NCC(=O)N[C@@H](CC(C)C)C(=O)N[C@@H](CCCCNc3ccc([N+](=O)[O-])cc3[N+](=O)[O-])C(=O)NCC(=O)O)cc(=O)oc2c1; assay: as above; conditions: other: MMP-1, 37° C., pH 7.5
Source text: as §1, §2

[3] = substrate: CCC[C@H](NC(=O)[C@H](C)NC(=O)[C@H](Cc1ccc(O)cc1)NC(=O)[C@@H]1CCCN1C(=O)[C@H](CCCCN)NC(=O)[C@@H]1CCCN1C(=O)[C@H](CCCNC(=N)N)NC(=O)Cc1cc(=O)oc2cc(OC)ccc12)C(=O)N[C@@H](Cc1c[nH]c2ccccc12)C(=O)N[C@@H](CCSC)C(=O)N[C@@H](CCCCNc1ccc([N+](=O)[O-])cc1[N+](=O)[O-])C(N)=O; assay: Fluorometric hydrolysis of synthetic Mca/Lys(Dnp) substrates by MMP-2; conditions: other: MMP-2, 37° C., pH 7.5
Source text: as §1, §2

[4] = substrate: COc1ccc2c(CC(=O)N3CCC[C@H]3C(=O)N[C@@H](CCCCN)C(=O)N3CCC[C@H]3C(=O)N[C@@H](CCC(N)=O)C(=O)N[C@@H](CCC(N)=O)C(=O)N[C@@H](Cc3ccccc3)C(=O)N[C@@H](Cc3ccccc3)C(=O)NCC(=O)N[C@@H](CC(C)C)C(=O)N[C@@H](CCCCNc3ccc([N+](=O)[O-])cc3[N+](=O)[O-])C(=O)NCC(=O)O)cc(=O)oc2c1; assay: as above; conditions: other: MMP-2, 37° C., pH 7.5
Source text: as §1, §2

Row | Protein | Km [1] [µM] | kcat [1] [S^-1] | kcat/Km [1] | Km [2] [µM] | kcat [2] [S^-1] | kcat/Km [2] | Km [3] [µM] | kcat [3] [S^-1] | kcat/Km [3] | Km [4] [µM] | kcat [4] [S^-1] | kcat/Km [4]
1 | B1 | 142 | 0.15 | 1,060 S^-1 M^-1 | 16.6 | 0.04 | 2,510 S^-1 M^-1 | – | – | – | – | – | –
2 | B2 | – | – | – | – | – | – | 50 | 2.70 | 54,000 S^-1 M^-1 | 100 | 1.07 | 10,800 S^-1 M^-1
